This is an account of results in US20020111306A1.

Test [1] addresses human MCH1 receptor (MCH1) encoded by plasmid TL231 (pEXJ.HR-TL231) (human). Description: radioligand binding, membranes of Cos-7 cells transfected with MCH1, 0.1 nM radioligand, filtration.
The target is the same in test [2]. The test can be described thus: radioligand binding, membranes of Cos-7 cells transfected with MCH1, 0.1 nM radioligand, filtration; nonspecific binding defined with 10 µM unlabeled MCH.
The target is the same in test [3]. The test can be described thus: cell-based or functional assay.
Test [4] has the same target. The test can be described thus: cell-based or functional assay. This is another data set of the same source.
In test [5] the target is mutant (short form) human MCH1 receptor encoded by plasmid BO120 (human). Description: cell-based or functional assay.
For test [6], the target named is mutant human MCH1 receptor encoded by plasmid R114 (M6A, M70A) (human) (UniProt Q99705). The test can be described thus: cell-based or functional assay.

Where “and” joins values, the source holds several entries; their conditions need not be identical. Equal entries are not always repeated.

Sequence of human MCH1 receptor (MCH1) encoded by plasmid TL231 (pEXJ.HR-TL231) (human) (chain, as listed by the source limits assumed): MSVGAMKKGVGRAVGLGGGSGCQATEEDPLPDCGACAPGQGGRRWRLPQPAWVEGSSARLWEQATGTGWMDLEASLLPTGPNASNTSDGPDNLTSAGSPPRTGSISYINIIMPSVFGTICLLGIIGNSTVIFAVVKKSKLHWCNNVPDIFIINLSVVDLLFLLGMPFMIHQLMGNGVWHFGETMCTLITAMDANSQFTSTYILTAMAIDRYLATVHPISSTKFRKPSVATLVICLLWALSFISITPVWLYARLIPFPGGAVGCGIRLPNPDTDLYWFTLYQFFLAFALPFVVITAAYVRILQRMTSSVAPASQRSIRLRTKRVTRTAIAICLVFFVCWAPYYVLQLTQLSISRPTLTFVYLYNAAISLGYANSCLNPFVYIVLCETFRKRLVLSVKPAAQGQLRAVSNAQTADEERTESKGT
Sequence of UniProt Q99705 (Q99705 whole entry, stated change not applied): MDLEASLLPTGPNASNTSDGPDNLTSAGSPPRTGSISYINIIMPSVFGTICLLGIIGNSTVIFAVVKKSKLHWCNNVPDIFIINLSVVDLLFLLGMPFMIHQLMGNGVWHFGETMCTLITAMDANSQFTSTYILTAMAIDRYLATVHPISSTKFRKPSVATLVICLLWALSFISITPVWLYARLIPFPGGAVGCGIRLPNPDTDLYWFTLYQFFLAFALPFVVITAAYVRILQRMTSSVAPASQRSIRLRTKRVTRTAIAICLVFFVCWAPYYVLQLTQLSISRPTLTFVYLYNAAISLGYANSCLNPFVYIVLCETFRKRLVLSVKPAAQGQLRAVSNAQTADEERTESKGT

In test [1], “[^125I]Phe^13,Tyr^19-MCH (from UniProt P20382 147-165) (peptide)” showed a specific binding as percent of total binding (% of total binding) of 70. In test [2], this molecule displayed a specific binding (fmol/mg membrane protein) of 80.

In turn, “Phe^13,Tyr^19-MCH (from UniProt P20382 147-165) (peptide)” yielded an EC50 of extracellular acidification rate (microphysiometer), CHO cells transiently transfected with MCH1 in test [3] of 51.8 nM.

As for DFDMLRCMLGRVYRPCWQV (peptide, UniProt P20382 147-165, looked up) [melanin concentrating hormone (MCH)], the EC50 (nM), mobilization of intracellular calcium (FLIPR, fluo-3), COS-7 cells in test [4] came out at 60 nM; in test [5], 3.5 nM. Also, the inositol phosphate (IP) production, Cos-7 cells co-transfected with MCH1 and a G alpha subunit, 10 µM MCH in test [4] worked out at 1.4 fold. Also, the Max. Response (RFU), mobilization of intracellular calcium (FLIPR, fluo-3), COS-7 cells was 30000 RFU and 25000 RFU in test [5]; 2270 RFU and 1550 RFU in test [6].
